Reference: patent publication US20240254227A1

Experiments:
murine CD300C-Fc (mouse) = assay: SPR (Carterra LSA), antibody immobilised, Fc fusion at 300 or 600 nM
[1] = biological target: CD300A/C/D/E/G (pool of five stable Freestyle HEK cell lines expressing huCD300A, huCD300C, huCD300D, huCD300E and huCD300G); assay: flow cytometry, pooled stable Freestyle HEK cells
[2] = biological target: cynomolgus monkey CD300LB transiently expressed on HEK293 cells (cynomolgus monkey); assay: flow cytometry, transfected HEK293, 10 ug/mL, isotype subtracted
cynomolgus monkey CD300LB transiently expressed on HEK293 cells (cynomolgus monkey), sequence (chain, as listed by the source limits assumed, form in doubt): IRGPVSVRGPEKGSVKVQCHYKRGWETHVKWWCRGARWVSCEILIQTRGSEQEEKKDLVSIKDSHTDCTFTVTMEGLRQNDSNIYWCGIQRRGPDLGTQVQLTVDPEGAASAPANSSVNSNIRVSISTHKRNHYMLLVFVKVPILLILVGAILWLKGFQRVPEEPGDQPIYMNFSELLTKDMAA

[3] = biological target: murine CD300LB-Fc (mouse); assay: SPR (Carterra LSA), antibody immobilised, Fc fusion at 300 or 600 nM
murine CD300LB-Fc (mouse), sequence (chain, as listed by the source limits assumed): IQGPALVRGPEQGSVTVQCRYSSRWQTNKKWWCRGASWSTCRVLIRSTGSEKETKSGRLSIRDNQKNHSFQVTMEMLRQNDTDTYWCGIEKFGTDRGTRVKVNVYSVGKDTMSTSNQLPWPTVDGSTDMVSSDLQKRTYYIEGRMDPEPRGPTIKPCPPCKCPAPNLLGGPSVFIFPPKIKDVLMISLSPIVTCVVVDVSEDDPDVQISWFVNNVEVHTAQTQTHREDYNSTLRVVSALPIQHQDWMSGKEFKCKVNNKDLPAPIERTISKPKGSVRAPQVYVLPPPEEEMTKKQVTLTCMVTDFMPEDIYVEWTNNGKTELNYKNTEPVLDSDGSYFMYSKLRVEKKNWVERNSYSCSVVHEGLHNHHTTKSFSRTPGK

[4] = biological target: huCD300F constitutively expressed on 293 Freestyle (Freestyle HEK) cells (human) (UniProt Q8TDQ1); assay: flow cytometry, stable Freestyle HEK cells
huCD300F constitutively expressed on 293 Freestyle (Freestyle HEK) cells (human), sequence (Q8TDQ1 other isoform, or with tags, fused parts or gaps): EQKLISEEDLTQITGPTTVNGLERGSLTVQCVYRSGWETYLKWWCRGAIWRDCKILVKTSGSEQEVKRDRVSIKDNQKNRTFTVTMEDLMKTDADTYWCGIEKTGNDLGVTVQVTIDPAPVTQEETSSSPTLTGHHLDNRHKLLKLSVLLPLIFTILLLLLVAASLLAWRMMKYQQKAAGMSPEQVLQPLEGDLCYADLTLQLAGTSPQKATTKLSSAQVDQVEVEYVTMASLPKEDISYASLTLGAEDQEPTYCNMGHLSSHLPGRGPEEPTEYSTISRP

[5] = biological target: recombinant human CD300LB overexpressed on Jurkat cells (human) (UniProt A8K4G0); assay: flow cytometry, stable Jurkat cells, supernatant or 10 ug/mL, isotype subtracted
recombinant human CD300LB overexpressed on Jurkat cells (human), sequence (A8K4G0 18-201 limits assumed): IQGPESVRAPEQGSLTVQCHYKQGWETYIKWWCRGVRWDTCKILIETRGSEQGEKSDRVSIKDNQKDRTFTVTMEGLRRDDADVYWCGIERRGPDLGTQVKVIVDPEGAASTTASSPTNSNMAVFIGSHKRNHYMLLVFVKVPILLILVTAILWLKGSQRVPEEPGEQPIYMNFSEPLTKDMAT

murine CD300C-Fc (mouse), sequence (chain, as listed by the source limits assumed): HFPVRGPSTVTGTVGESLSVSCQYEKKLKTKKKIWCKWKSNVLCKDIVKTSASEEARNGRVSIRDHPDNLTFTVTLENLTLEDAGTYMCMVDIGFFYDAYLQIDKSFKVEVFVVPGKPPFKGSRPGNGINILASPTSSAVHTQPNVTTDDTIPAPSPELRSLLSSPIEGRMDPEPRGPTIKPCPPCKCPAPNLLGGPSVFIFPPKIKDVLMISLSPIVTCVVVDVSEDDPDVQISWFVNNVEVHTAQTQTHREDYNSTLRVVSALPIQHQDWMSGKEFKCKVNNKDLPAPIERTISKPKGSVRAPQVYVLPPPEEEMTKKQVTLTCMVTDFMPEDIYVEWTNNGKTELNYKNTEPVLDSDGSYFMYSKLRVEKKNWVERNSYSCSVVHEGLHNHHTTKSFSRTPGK

| gMFI [1] [gMFI] | gMFI [2] [gMFI] | Binder | further results |
| --- | --- | --- | --- |
|  |  | anti-CD300LB antibody CD-11 (antibody, V domains shown) VH: QIQLVQSGPEVKKPGETVKISCKASGYTLTDYSMHWVMQTPGTGLKWMAWMNTETGEPTYADDFKGRFAFSLETSAGTAYLQIDNLKNEDTATYFCATYGKSYGMKYWGQGTSVTVSS VL: DIVLTQSPPSLAVSLGQRATISCRATKSVSPYLHWYQQTPGQPPKLLIYLASNLDSGVPARFSGSGSGTDFTLNIHPVEEEDAATYYCQHNKELPPTFGGGTRLEIK | SPR binding (control subtracted) (murine CD300C-Fc (mouse)): 37.8 |
|  |  | anti-CD300LB antibody CD-10 (antibody, V domains shown) VH: QVQLQQSGPELVRPGVSVKISCKGSGYTFTDYAMHWVKQSHVRSREWIGVIGTYNGHTNYNQKFKGKATMTVDKSSSTAYLELARLTSEDSAIYYCARSGSYYYSMDYWGQGTSVTVSS VL: QIVLTQSPAIMSASPGEKVTMTCSASSSVNYMHWYQQKSGTSPKRWIYDTSKLSSGVPARFSGSGSGTSYSLTISTMEAEDAATYYCQQWSSNPPMTFGGGTKLEIK | SPR binding (control subtracted) (murine CD300C-Fc (mouse)): 11.8 |
| 166 | -43.5 | anti-CD300LB antibody CD-08 (antibody, V domains shown) VH: EVQLLESGGGLVQPGGSLRLSCAASGFTFSNAWMSWVRQAPGKGLEWVSVISGSGGRTYYADSVKGRFTISRDNSKNTLYLQMNSLRAEDTAVYYCARDGTTVAPKGMDVWGQGTTVTVSS VL: DIQMTQSPSSLSASVGDRVTITCQASQDINNYVNWYQQKPGKAPKLLIYAASNLQSGVPSRFSGSGSGTDFTLTISSLQPEDFATYYCQQSYSPPYTFGQGTKLEIK |  |
| 2510 | -62.5 | anti-CD300LB antibody CD-05 (antibody, V domains shown) VH: QVQLVQSGAEVKKPGASVKVSCKASGYTFSRYYINWVRQAPGQGLEWMGWINPNSGGTNYAQKFQGRVTMTRDTSTSTVYMELSSLRSEDTAVYYCTTDQLRFGKTGPYYGMDVWGQGTTVTVSS VL: DIQMTQSPSSLSASVGDRVTITCRASQNIGTYLNWYQQKPGKAPKLLIYAASSLQSGVPSRFSGSGSGTDFTLTISSLQPEDFATYYCQQSYSDTLTFGGGTKVEIK | SPR binding (control subtracted) [3]: 3.65 |
| -25.5 | -19.5 | anti-CD300LB antibody CD-09 (antibody, V domains shown) VH: QVQLVQSGAEVKKPGASVKVSCKASGYTFTTYAVHWVRQAPGQGLEWMGIINPNSGGTNYAQKFQGRVTMTRDTSTSTVYMELSSLRSEDTAVYYCARDIVPMNNFYNYYYGMDVWGQGTTVTVSS VL: DIQMTQSPSSLSASVGDRVTITCRASQSISSYLNWYQQKPGKAPKLLIYATSTLQSGVPSRFSGSGSGTDFTLTISSLQPEDFATYYCQQSYRIPYTFGQGTKVEIK |  |
| 42.5 | 39 | anti-CD300LB antibody CD-07 (antibody, V domains shown) VH: QVQLVQSGAEVKKPGASVKVSCKASGYTFTNYRMHWVRQAPGQGLEWMGWINPNSGGTIYAQKFQGRVTMTRDTSTSTVYMELSSLRSEDTAVYYCARDLDYWGQGTLVTVSS VL: DIQMTQSPSSLSASVGDRVTITCQASQDISNYLNWYQQKPGKAPKLLIYGASSLQSGVPSRFSGSGSGTDFTLTISSLQPEDFATYYCQQSYSTPWTFGPGTKVEIK |  |
| 779 | -51 | anti-CD300LB antibody CD-06 (antibody, V domains shown) VH: QVQLVQSGAEVKKPGASVKVSCKASGYTFTTYAVHWVRQAPGQGLEWMGIVNPNSGGTNYAQKFQGRVTMTRDTSTSTVYMELSSLRSEDTAVYYCARDIVPMNNFYNYYYGMDVWGQGTTVTVSS VL: DIQMTQSPSSLSASVGDRVTITCRASQSISSYLNWYQQKPGKAPKLLIYATSTLQSGVPSRFSGSGSGTDFTLTISSLQPEDFATYYCQQSYRIPYTFGQGTKVEIK |  |
| -21.5 | 190 | anti-CD300LB antibody CD-01 (antibody, V domains shown) VH: RVQLQQSGAELVRPGASVTLSCKASGFTFTDFEMHWVKKTPVHGLEWIGAIDPESGNTAYNQKFRGKATLTADKSSSTAYMELRYLTSEDSAVYYCTPLISGADYWGQGTTLTVSS VL: DVVMTQSPLSLPVSLGDQASISCRSSQSLVHSDGNTYLYWYLQKPGQSPKLLIYKVSNRFSGVPDRFSGSGSGTDFTFKISRVGAEDLGVYFCSQSTHVPWTFGGGTKLEII |  |
| 52.5 | 72.2 | anti-CD300LB antibody CD-04 (antibody, V domains shown) VH: QVQLQQSGAELVRPGASVTLSCRASGYTFTDFEMHWVKQTPLHGLEWIGAIAPETGGTAYNQKFKGKAILTADKSSSTAYVELRSLTSEDSAVYFCTRLGGMDYWGQGTSVTVSS VL: DVVMTQTPLSLPVSLGDQASISCRSSQTLVHNNGNTYLYWYLQKPGQSPKLLIYQVSNRFFGVPDRFSGSGSGTDFTLKISRVEAEDLGLYFCSQSTHVPWTFGGGTKLEIK | gMFI [4]: 163 gMFI |
|  |  | anti-CD300LB antibody CD-15 (antibody, V domains shown) VH: QIQLVQSGPELKKPGETVKISCQVSGYTFTDYSMHWLKQAPGKGLKWMAWINTETGESTYTDEFKGRFVFSLETSVRTAYLKINNLKNEDTATYFCGTYGSSYGMAYWGQGTSVTVSS VL: DIVLTQSPASLPVSLGQRATISCRASKSVSTSGSSYLHWYQQKPGQPPKLLIYLASKLESGVPARFRGSGSGTDFTLNIHPVEEEDAATYYCQHNREVPPTFGGGTKLEIK | gMFI [5]: 22 gMFI |
|  |  | anti-CD300LB antibody CD-16 (antibody, V domains shown) VH: QIQLVQSGPELKKPGETVKISCKASGYTFTDYSMHWVKQAPGKGLKWMAWINTETGEPTYADDFRGRFAFSLETSGRTAYLEINNLRNEDTATYFCVTYGSSYGMAYWGQGTSVTVSS VL: DIVLTQSPASLAVSLGQRATISCRASKSVSRSGYSYLHWYQQKPGQPPKLLIYLASKLESGVPARFSGSGSGTDFTLNIHPVEAEDAATYYCQHNREIPPTFGGGTKLEIK | gMFI [5]: 31 gMFI |
